Data published in patent US20150147272A1, “RADIO-PHARMACEUTICAL COMPLEXES” (Algeta ASA, priority 2012, published 2015).

B1: AGC0715: AGC0700 conjugated to the water soluble chelator AGC0015 (12) (conjugate)
heavy: QVQLVQSGAEVKKPGSSVKVSCKASGYTFTDYNMHWVRQAPGQGLEWIGYIYPYNGGTGYNQKFKSKATITADESTNTAYMELSSLRSEDTAVYYCARGRPAMDYWGQGTLVTVSSASTKGPSVFPLAPSSKSTSGGTAALGCLVKDYFPEPVTVSWNSGALTSGVHTFPAVLQSSGLYSLSSVVTVPSSSLGTQTYICNVNHKPSNTKVDKKVEPKSCDKTHTCPPCPAPELLGGPSVFLFPPKPKDTLMISRTPEVTCVVVDVSHEDPEVKFNWYVDGVEVHNAKTKPREEQYNSTYRVVSVLTVLHQDWLNGKEYKCKVSNKALPAPIEKTISKAKGQPREPQVYTLPPSRDELTKNQVSLTCLVKGFYPSDIAVEWESNGGQPENNYKTTPPVLDSDGSFFLYSKLTVDKSRWQQGNVFSCSVMHEALHNHYTQKSLSLSPG
light: DIQMTQSPSSLSASVGDRVTITCRASESVDNYGISFMNWFQQKPGKAPKLLIYAASNQGSGVPSRFSGSGSGTDFTLTISSLQPDDFATYYCQQSKEVPWTFGQGTKVEIKRTVAAPSVFIFPPSDEQLKSGTASVVCLLNNFYPREAKVQWKVDNALQSGNSQESVTEQDSKDSTYSLSSTLTLSKADYEKHKVYACEVTHQGLSSPVTKSFNRGEC
modifications: chelator AGC0015 (12) conjugated; site not stated; none, one or two chelators on a chain
B2: AGC0715-Th-227: antibody-conjugate AGC0715 chelated with Th-227 (conjugate)
heavy: B1 heavy
light: B1 light
modifications: chelator AGC0015 (12) conjugated, chelating Th-227; site not stated

How the values were obtained:
[1] = molecular target: T1, CD33-positive HL-60 cells (Homo sapiens, UniProt P20138); assay: Binding to CD33-positive HL-60 cells by flow cytometry; details: compared with AGC0700
T1 construct: endogenous in cells; host or cells: HL-60 cells
T1 sequence (P20138 18-364): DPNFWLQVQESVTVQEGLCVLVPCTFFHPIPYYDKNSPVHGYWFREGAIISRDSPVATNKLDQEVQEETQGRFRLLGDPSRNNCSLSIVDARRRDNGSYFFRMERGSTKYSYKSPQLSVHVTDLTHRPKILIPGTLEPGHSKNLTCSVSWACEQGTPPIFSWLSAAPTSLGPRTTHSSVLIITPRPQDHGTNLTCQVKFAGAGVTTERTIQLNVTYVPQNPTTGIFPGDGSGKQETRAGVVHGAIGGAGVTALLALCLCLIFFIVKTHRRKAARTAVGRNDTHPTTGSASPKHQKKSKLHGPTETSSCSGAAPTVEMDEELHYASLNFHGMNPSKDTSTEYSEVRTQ
Method: Binding to CD33-positive HL-60 cells were studied by flow cytometry. The determination of EC50 based on the plotted curve gives an approximate value for the affinity. The commercially available mouse anti human CD33 (BD Pharmingen; #555450, 1 mg/mL) was used as a reference antibody for assessment of the affinity, including a setup with a 50:50 mixture with the mAb to be analyzed. This assay was also used to confirm that target binding affinity was not negatively affected by conjugation with the chelator.
HL-60 cells were grown in Iscove's Modified Dulbecco's Medium (IMDM; Invitrogen; #12440-046) in the presence of 20% of fetal bovine serum and penicillin/streptomycin. Approximately 20 mL cell culture was harvested by centrifugation at 4° C. for 5 min at 300 g. […] Subsequently, 20 μL of the preparation of resuspended cells was diluted 1:500 in Coulter Isoton II Diluent, and counted using a Beckman Coulter Z2 instrument (Beckman Coulter; CA, USA). […]
The mAb or conjugate to be analyzed was prepared fresh form frozen stock by shifting the storage buffer to PBS, kept at 4° C., and used within a few days after preparation. […] All samples were analysed in 96-well round or conical bottom plates. Fluorescent signals were recorded on a Beckham Coulter Cell lab Quant SC flow cytometer (Beckman Coulter; CA, USA). […]

[2] = system: CD33 positive HL-60 cells; assay: Th-227-induced in vitro cell cytotoxicity (CellTiter-Glo ATP viability); type: cell-based, human; details: 3 nM or 0.3 nM, specific activity 44 kBq/μg, followed to day 7
Method: In vitro cell cytotoxicity was investigated in CD33 positive HL-60 cells. AGC0715 and the control trastuzumab conjugated AGC0015 were used to chelate Th-227 to a specific activity of 44 kBq/μg. HL-60 cells were grown at 37° C. with 5% CO2, and split 1:5 three times a week. The day before the assay the culture medium (Iscove's Modified Dulbecco's Medium (IMDM) with 20% FBS and 1% Penicillin/Streptomycin) was replaced by new medium and the volume adjusted to give 400 000 cells per mL.
About, 1 600 000 cell (4 mL) were added to each well in a 6 well plate. The plate was incubated until next day for addition of labelled mAb, or culture medium. After adding labelled mAb, or culture medium, the plate was incubated for 4 additional hours. In one experiment AGC0715 or trastuzumab-AGC0015 was added to each well to a final concentration of 3 nM. In another experiment the final concentration was 0.3 nM.
Following incubation, the cells were washed twice in culture medium, and the ATP in the supernatant and in the pellet was measured. The cells were then split 1:2 and incubated in culture medium at 37° C. with 5% CO2. The same procedure, but with only one wash, was repeated at days 2, 4, and 7.

| Molecule | binding affinity [1] | cellular toxicity (cell viability by ATP) [2] |
| --- | --- | --- |
| B1 | comparable to the non-conjugated AGC0700 |  |
| B2 |  | resulted in cellular toxicity |
